How the values were obtained:
[1] = target: T1, Muc1 mucin carrying the CA6 sialoglycotope (human, UniProt P15941 24-1255, sialylated O-linked carbohydrate carrying the CA6 epitope; positions not stated); assay: flow cytometry on PC-3 cells, apparent Kd
T1 construct: whole, on cells; Target of DS6 on CA6-positive human cell lines (flow cytometry) and in their lysates (dot blots, immunoprecipitation); also called CA6 antigen; DS6 antigen
Experimental: (§1) Human cell lines were obtained from the American Type Culture Collection (ATCC) with the exception of OVCAR5 (Kearse et al., Int. J. Cancer 88(6):866-872 (2000)), OVCAR8 and IGROV1 cells (M. Seiden, Massachusetts General Hospital). All cells were grown in RPMI 1640 supplemented with 4 mM L-glutamine, 50 U/ml penicillin, 50 μg/ml streptomycin (Cambrex Bio Science, Rockland, Me.) and 10% v/v fetal bovine serum (Atlas Biologicals, Fort Collins, Colo.), referred hereafter as culture media. Cells were maintained in a 37° C., 5% CO₂ humidified incubator.
(§2) Cells ([…]) were incubated, on ice for 3-4 h, with serially diluted concentrations of the DS6 antibody prepared in FACS buffer (2% goat serum, RPMI) into 96-well plates. The cells were spun down in a table top centrifuge at 1500 rpm for 5 min at 4° C. After removing the media, the wells were then refilled with 150 μl of FACS buffer. The wash step was then repeated. FITC-labeled goat anti-mouse IgG (Jackson Immunoresearch) was diluted 1:100 to FACS buffer and incubated with the cells for 1 h on ice. The plate was covered in foil to prevent photobleaching of the signal. After two washes, the cells were fixed with 1% formaldehyde and analyzed on a flow cytometer.

[2] = target: T1, Muc1 mucin carrying the CA6 …; assay: flow cytometry on CAMA-1 cells, apparent Kd
Experimental: as §1, §2

[3] = target: T1, Muc1 mucin carrying the CA6 …; assay: flow cytometry on BT-483 cells, apparent Kd
Experimental: as §2

[4] = target: T1, Muc1 mucin carrying the CA6 …; assay: flow cytometry on ZR-75-1 cells, apparent Kd
[5] = target: T1, Muc1 mucin carrying the CA6 …; assay: flow cytometry on TOV-21G cells, apparent Kd
[6] = target: T1, Muc1 mucin carrying the CA6 …; assay: flow cytometry on OVCAR5 cells, apparent Kd
Experimental: as §2

[7] = target: T1, Muc1 mucin carrying the CA6 …; assay: flow cytometry on HeLa cells, apparent Kd
[8] = target: T1, Muc1 mucin carrying the CA6 …; assay: flow cytometry on BxPC-3 cells, apparent Kd
Experimental: as §1, §2

[9] = target: T1, Muc1 mucin carrying the CA6 …; assay: flow cytometry on OVCAR5 cells, apparent Kd; remark: listed apart in the source
Experimental: as §1, §2

[10] = target: T1, Muc1 mucin carrying the CA6 …; assay: cell-based or functional assay

- Kd [1]: 0.136 nM
- Kd [2]: 2.33 nM
- Kd [3]: 13.7 nM
- Kd [4]: 4.3 nM
- Kd [5]: 0.307 nM
- Kd [6]: 1.47 nM
- Kd [7]: 0.694 nM
- Kd [8]: 5.26 nM
- Kd [9]: 1.47 nM
B1: murine DS6 anti-CA6 monoclonal antibody (antibody, IgG1, V domains shown)
VH: QAYLQQSGAELVRSGASVKMSCKASGYTFTSYNMHWVKQTPGQGLEWIGYIYPGNGATNYNQKFKGKATLTADPSSSTAYMQISSLTSEDSAVYFCARGDSVPFAYWGQGTLVTVSA
VL: QIVLTQSPAIMSASPGEKVTITCSAHSSVSFMHWFQQKPGTSPKLWIYSTSSLASGVPARFGGSGSGTSYSLTISRMEAEDAATYYCQQRSSFPLTFGAGTKLELKR
notes: Whole murine monoclonal IgG from the DS6 hybridoma (ATCC PTA-4449); the 3' heavy chain cloning primer was BamIgG1 and the light chain primer was kappa; also called DS6 antibody; muDS6
- indirect cell viability assay, DS6 with anti-mouse IgG (H+L) DM1 conjugate, Caov-3 cells, IC50 [10]: 0.425 nM

— patent US20050123549A1 (IMMUNOGEN, published 2005)
